The values below come from publication PMC12804074.

As a reminder, the Kd is the equilibrium constant for the complex coming apart. Read a high Kd as lower affinity.

The target in test [1] is FDX2ALC (ferredoxin-2 labelled with ALC 480) (human) (UniProt Q6P4F2). In words: flow-induced dispersion analysis.
Test [2] addresses FXNALC (frataxin labelled with ALC 480) (human) (UniProt Q16595). Put plainly: flow-induced dispersion analysis.
In test [3] the target is (NFS1–ISD11–ACP–ISCU2)2 complex (human) (UniProt Q9HD34). In words: ITC.
Test [4] addresses cysteine desulfurase complex (NFS1–ISD11–ACP)2 (human) (UniProt Q9HD34). In words: ITC. On the technique in general: ITC needs no label: the signal is the heat of the interaction.

Chain of FDX2ALC (ferredoxin-2 labelled with ALC 480) (human) (Q6P4F2 53-183): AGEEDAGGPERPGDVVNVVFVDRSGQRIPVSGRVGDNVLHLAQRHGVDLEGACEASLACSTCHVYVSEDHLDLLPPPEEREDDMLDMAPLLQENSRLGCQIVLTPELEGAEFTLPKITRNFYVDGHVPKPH
Chain of ferredoxin-2 (FDX2), wild type (Q6P4F2 53-183): as above

As to “(NFS1–ISD11–ACP–ISCU2)2 complex (from UniProt Q9HD34 1-91; O14561 69-156; Q9H1K1-1 35-167)”, the Kd in test [1] came to 16000 nM; in test [2], 102 nM. “ferredoxin-2 (FDX2), wild type (from UniProt Q6P4F2 53-183) (natural protein)” registered a KD of the tight-binding exothermic mode in test [3] of 102 nM. Take “frataxin (FXN) (from UniProt Q16595 42-210) (natural protein)”: in test [3], the Kd is 146 nM. “FDX2 D179A (from UniProt Q6P4F2 53-183) (natural protein)” came in with a Kd in test [4] of 39 nM. This lies in the double-digit nanomolar range.
